Test results published in patent US20250236663A1.
One block for each binder: values may come before it.

Tests used:
[1] = target: Recombinant human FAM19A5 protein (His-tagged) (human) (UniProt Q7Z5A7); test: ELISA, N'-Term His; R² 0.9813
[2] = target: Recombinant human FAM19A5 protein (His-tagged) (human) (UniProt Q7Z5A7); test: ELISA, N'-Term His; parameters: unit not given here
[3] = target: Recombinant human FAM19A5 protein (His-tagged) (human) (UniProt Q7Z5A7); test: ELISA, N'-Term His; R² 0.9105
[4] = target: Recombinant human FAM19A5 protein (His-tagged) (human) (UniProt Q7Z5A7); test: ELISA, N'-Term His; R² 0.9329
[5] = target: Recombinant human FAM19A5 protein (His-tagged) (human) (UniProt Q7Z5A7); test: OCTET (BLI), His-tagged FAM19A5 on Ni-NTA biosensors, antibody at 1.1-300 nM
[6] = target: Recombinant human FAM19A5 protein (His-tagged) (human) (UniProt Q7Z5A7); test: two-site sandwich ELISA, capture antibody 1-65; O.D. 0.16 / 0.15 / 0.15 at antigen 100 / 10 / 0 (ng/mL); grey box
[7] = target: Recombinant human FAM19A5 protein (His-tagged) (human) (UniProt Q7Z5A7); test: two-site sandwich ELISA, capture antibody 3-2; O.D. 1.91 / 1.66 / 0.16 at antigen 100 / 10 / 0 (ng/mL); white box
[8] = target: Recombinant human FAM19A5 protein (His-tagged) (human) (UniProt Q7Z5A7); test: two-site sandwich ELISA, capture antibody P2-F11; O.D. 0.15 / 0.15 / 0.14 at antigen 100 / 10 / 0 (ng/mL); grey box
[9] = target: Recombinant human FAM19A5 protein (His-tagged) (human) (UniProt Q7Z5A7); test: ELISA, N'-Term His; R² 0.9746
[10] = target: Recombinant human FAM19A5 protein (His-tagged) (human) (UniProt Q7Z5A7); test: two-site sandwich ELISA, capture antibody 2-13; O.D. 1.88 / 1.72 / 0.22 at antigen 100 / 10 / 0 (ng/mL); white box
[11] = target: Recombinant human FAM19A5 protein (His-tagged) (human) (UniProt Q7Z5A7); test: two-site sandwich ELISA, capture antibody 13B4; O.D. 0.27 / 0.22 / 0.22 at antigen 100 / 10 / 0 (ng/mL); grey box
[12] = target: Recombinant human FAM19A5 protein (His-tagged) (human) (UniProt Q7Z5A7); test: ELISA, N'-Term His; R² -0.2016
[13] = target: Recombinant human FAM19A5 protein (His-tagged) (human) (UniProt Q7Z5A7); test: two-site sandwich ELISA, capture antibody 2-13; O.D. 1.83 / 2.04 / 0.29 at antigen 100 / 10 / 0 (ng/mL); white box
[14] = target: Recombinant human FAM19A5 protein (His-tagged) (human) (UniProt Q7Z5A7); test: two-site sandwich ELISA, capture antibody P2-A03; O.D. 0.09 / 0.09 / 0.09 at antigen 100 / 10 / 0 (ng/mL); grey box
[15] = target: Recombinant human FAM19A5 protein (His-tagged) (human) (UniProt Q7Z5A7); test: two-site sandwich ELISA, capture antibody 1-65; O.D. 1.25 / 0.2 / 0.12 at antigen 100 / 10 / 0 (ng/mL); grey box but for the cell of 100
[16] = target: Recombinant human FAM19A5 protein (His-tagged) (human) (UniProt Q7Z5A7); test: ELISA, N'-Term His; R² 0.9692
[17] = target: Recombinant human FAM19A5 protein (His-tagged) (human) (UniProt Q7Z5A7); test: two-site sandwich ELISA, capture antibody 13B4; O.D. 0.2 / 0.18 / 0.18 at antigen 100 / 10 / 0 (ng/mL); grey box
[18] = target: Recombinant human FAM19A5 protein (His-tagged) (human) (UniProt Q7Z5A7); test: two-site sandwich ELISA, capture antibody 3-2; O.D. 2.02 / 1.81 / 0.13 at antigen 100 / 10 / 0 (ng/mL); white box
[19] = target: Recombinant human FAM19A5 protein (His-tagged) (human) (UniProt Q7Z5A7); test: two-site sandwich ELISA, capture antibody P2-A03; O.D. 0.15 / 0.16 / 0.14 at antigen 100 / 10 / 0 (ng/mL); grey box
[20] = target: Recombinant human FAM19A5 protein (His-tagged) (human) (UniProt Q7Z5A7); test: ELISA, N'-Term His; R² 0.8823
[21] = target: Recombinant human FAM19A5 protein (His-tagged) (human) (UniProt Q7Z5A7); test: two-site sandwich ELISA, capture antibody 1-65; O.D. 0.12 / 0.12 / 0.12 at antigen 100 / 10 / 0 (ng/mL); grey box
[22] = target: Recombinant human FAM19A5 protein (His-tagged) (human) (UniProt Q7Z5A7); test: two-site sandwich ELISA, capture antibody P2-F11; O.D. 0.14 / 0.16 / 0.15 at antigen 100 / 10 / 0 (ng/mL); grey box
[23] = target: Recombinant human FAM19A5 protein (His-tagged) (human) (UniProt Q7Z5A7); test: two-site sandwich ELISA, capture antibody 2-13; O.D. 1.92 / 0.65 / 0.21 at antigen 100 / 10 / 0 (ng/mL); white box
[24] = target: Recombinant human FAM19A5 protein (His-tagged) (human) (UniProt Q7Z5A7); test: two-site sandwich ELISA, capture antibody 3-2; O.D. 1.7 / 0.3 / 0.13 at antigen 100 / 10 / 0 (ng/mL); white box

B2: Anti-FAM19A5 (P1-F02) (antibody, V domains shown)
VH: QSLEESGGRLVTPGTPLTLTCTASGFSLSNYYMGWVRQAPGEGLEWIGIIYASGSTYYASWAKGRFTISKTSTTVDLKMTSLTTEDTATYFCARIDIGVGDYGWAYDRLDLWGQGTLVTVSS
VL: ELDMTQTPPSLSASVGETVRIRCLASEDIYSGISWYQQKPGKPPTLLIYGASNLESGVPPRFSGSGSGTDYTLTIGGVQAEDAATYYCLGGYSYSSITFGAGTNVEIK
Bmax [2]: 0.172

B3: Anti-FAM19A5 (P2-A01) (antibody, V domains shown)
VH: QEQLVESGGRLVTPGTPLTLSCTASGFFLSGYYMSWVRQAPGKGLEWIGIIYPSGSTDYASWAKGRFTISKTSTTVDLKITTPTTEDTATYFCARVAGYVGYGYETFFDIWGPGTLVTVSL
VL: ELVMTQTPPSLSASVGETVRIRCLASEDIYSGISWYQQKPGKPPTLLIYGASNLESGVPPRFSGSGSGSDYTLTIGGVQAEDAATYYCLGGVTYSSTGTHLTFGAGTNVEIK
Kd [3]: 9.09 nM | Bmax [2]: 1.19

B5: Anti-FAM19A5 (P2-A03) (antibody, V domains shown)
VH: QSVEESGGRLVTPGTPLTLTCTVSGFSLNNYDMSWVRQAPGKGLEYIGFMDTDGSAYYATWAKGRFTISRTSTTVDLKMTSPTTEDTATYFCARRGSSYYGGIDIWGPGTPVTVSL
VL: ELDLTQTPASVSEPVGGTVTIKCQASQSIGGNLAWYQQKPGQPPKLLIYRASTLASGVPSRFKGSGSGTDFTLTISDLECADAATYYCQSPAYDPAAYVGNAFGGGTELEIL
S/N [6]: 1 | S/N [7]: 10 | S/N [8]: 1.1 | Kd [9]: 0.61 nM | S/N [10]: 7.8 | Bmax [2]: 3.37 | S/N [11]: 1

B6: Anti-FAM19A5 (15A9) (antibody, V domains shown)
VH: QVQLQESGPGLVKPSETLSLTCTVSGGSISSYYWSWIRQPPGKGLEWIGYIYPSGSTNYNPSLKSRVTISVDTSKNQFSLNLKSVTAVDTAVYYCARVNPFGYYYAMDVWGQGTTVTVSS
VL: DIQMTQSPSSLSASVGDRITISCRASQSISTSLNWYQQTPGKAPRLLIYGASTLQSGVPSRFSGGGSGTDFSLTITSLQPEDFATYYCQESASIPRTFGQGTKLDIK
Kd [5]: 5.95 nM

B9: Anti-FAM19A5 (P2-F11) (antibody, V domains shown)
VH: QEQLVESGGRLVTPGTTLTLTCTVSGFSLSSYGVSWVRQAPGKGLEWIGYIANNYNPHYASWAKGRFTISKTSSTTVDLKMTSLTTEDTATYFCARDNYGMDPWGPGTLVTVSS
VL: ELDLTQTPSSVSAAVGGTVTINCQASQSVYNNKNLAWYQQKPGQPPKLLIYAASTLASGVSSRFKGSGSGTQFTLTISDVQCDDAATYYCQGEFSCSSADCNAFGGGTELEIL
S/N [13]: 7 | S/N [14]: 1 | S/N [15]: 1.7 | Kd [16]: 0.41 nM | S/N [17]: 1 | S/N [18]: 13.9 | Bmax [2]: 3.26

B10: Anti-FAM19A5 (13B4) (antibody, V domains shown)
VH: QVQLQESGPGLVKPSGTLSLNCAVSGGSISSSNWWSWVRQPPGKGLEWIGEIYHGGTTNYNPSLKGRVTMSVDKTKNQFSLRLSSVTAVDTAVYYCARWQLVGGLDVWGQGTTVTVSS
VL: SYELTQPLSVSVSPGQTASITCSGDKLGNVYASWYQQKPGQSPTLVIYQDNKRPSGIPERFSGSNSGKTATLTISGTQALDEADYYCQAWDSSTAVFGGGTKLTVL
S/N [19]: 1.1 | Kd [20]: 1.06 nM | S/N [21]: 1 | S/N [22]: 1.1 | S/N [23]: 3.1 | S/N [24]: 2.3 | Kd [5]: 3.6 nM | Bmax [2]: 2.84

More lines, now with the values ahead:

Kd [1]: 7.5 nM | Bmax [2]: 2.45
B1: P1-A03 (antibody, V domains shown)
VH: QSVEESGGRLVTPGTPLTLTCTVSGFSLSSDYMSWVRQAPGEGLEWIGIIYPSTTTYYASWAKGRFTISKTSSTTVELKMTSLTTEDTATYFCARGSNWSSGMNLWGPGTLVTVSS
VL: ELVMTQTPPSLSASVGETVRIRCLASEDIYSGISWYQQKPEKPPTLLISGASNLESGVPPRFSGSGSGTDYTLTIGGVQAEDAATYYCLGGYSYSSTGLTFGAGTNVEIK

Kd [4]: 2.77 nM | Kd [5]: 0.25 nM | Bmax [2]: 3.04
B4: Anti-FAM19A5 (13F7) (antibody, V domains shown)
VH: QVQLQEWGAGLLKPSETLSLTCAINAESFNGYSWTWIRQTPGKGLEWIGEISHFGSANYNPSLKSRATISADKSKNQFSLKLTSVTAVDTAVYYCARALRGTYSRFYYGMDVWGQGTTVTVSS
VL: DIVMTQTPLSLPVAPGEPASISCRSSQSLLHSNGYNYLDWYVQKPGQPPQLLIYLGSNRASGVPDRFSGSGSGTDFTLKISRVEAEDVGVYYCMQARQTPLTFGGGTKVEIK

Bmax [2]: 0.134
B7: Anti-FAM19A5 (P2-F07) (antibody, V domains shown)
VH: QSLEESGGRLVTPGTPLTLTCTASGFSLSSYYMNWVRQAPGKGLEWIGIIYPSGTTYYAGWAKGRFTISKTSTTVDLKITSPTSEDTATYFCARTVSGYFDIWGPGTLVTVSL
VL: ELDLTQTPPSLSASVGGTVTINCLASEDIYSALAWYQQKPGKPPTLLISGTSNLESGVPPRFSGSGSGTDYTLTIGGVQAEDAATYFCQGYSSYPLTFGAGTNVEIK

Kd [12]: 6.95 nM | Bmax [2]: 0.479
B8: Anti-FAM19A5 (P1-A08) (antibody, V domains shown)
VH: QSLEESGGRLVTPGTPLTLTCTASGFSLSTYYMSWVRQAPGKGLEWIGIVYPSGTTYYANWAKGRFTISTASTTVDLMITSPTTEDTATYFCARGDSFGYGLWGPGTLVTVSS
VL: ELVLTQSPSVQVNLGQTVSLTCTADTLSRSYASWYQQKPGQAPVLLIYRDTSRPSGVPDRFSGSSSGNTATLTISGAQAGDEADYYCATSDGSGSNYQYVFGGGTQLTVT
